# Measured values: publication PMC8500521
# Legend:
# [1] = target: 6HB (HR1-linker-HR2) of SARS-CoV-2 fusion protein (SARS-CoV-2) (UniProt P0DTC2); assay: SEC-MALS; Superose-12, room temperature, 20 mM sodium phosphate pH 6.0, 30 mM NaCl; injected 65 uM 6HB, 90 uM HR1
# [2] = target: 6HB (HR1-linker-HR2) of SARS-CoV-2 fusion protein (SARS-CoV-2) (UniProt P0DTC2); assay: AUC; sedimentation velocity, 50,000 rpm, 20 C, 50 mM NaCl, 25 mM sodium phosphate pH 6.0, no detergent; monomer to tetramer
# [3] = target: HR1 (heptad repeat 1) domain of SARS-CoV-2 spike protein (SARS-CoV-2) (UniProt P0DTC2); assay: as above
substance,measurement,setting,value
6HB (HR1-linker-HR2) of SARS-CoV-2 fusion protein (from UniProt P0DTC2 918-965; P0DTC2 1171-1207),stoichiometry N,[1],3
same,stoichiometry N,[2],3
HR1 (heptad repeat 1) domain of SARS-CoV-2 spike protein (from UniProt P0DTC2 918-965) (domain or fragment),stoichiometry N,[3],4
